Measured values as given in patent US20100240872A1 (FORERUNNER PHARMA RESEARCH, published 2010).

Tests used:
[1] = target: T1, GST_Muc17ct_del3 (4115Thr-4243Gly) (human, UniProt Q685J3 4115-4243); test: ELISA, GST fusion immobilized at 1 µg/mL
T1 construct: not shown: GST encoded by vector pGEX4T-3 (Takara Bio)

[2] = target: T2, GST_Muc17ct_del2 (4244Ser-4390Leu) (human, UniProt Q685J3 4244-4390); test: ELISA, GST fusion immobilized at 1 µg/mL
T2 construct: not shown: GST encoded by vector pGEX4T-3 (Takara Bio)

[3] = target: T3, Muc17ct_mIgG2aFc (soluble human Muc17ct / mouse IgG2a Fc fusion protein) (human); test: ELISA screening of hybridoma supernatant on immobilized Muc17ct_mIgG2aFc
T3 sequence (chain, as listed by the source limits assumed): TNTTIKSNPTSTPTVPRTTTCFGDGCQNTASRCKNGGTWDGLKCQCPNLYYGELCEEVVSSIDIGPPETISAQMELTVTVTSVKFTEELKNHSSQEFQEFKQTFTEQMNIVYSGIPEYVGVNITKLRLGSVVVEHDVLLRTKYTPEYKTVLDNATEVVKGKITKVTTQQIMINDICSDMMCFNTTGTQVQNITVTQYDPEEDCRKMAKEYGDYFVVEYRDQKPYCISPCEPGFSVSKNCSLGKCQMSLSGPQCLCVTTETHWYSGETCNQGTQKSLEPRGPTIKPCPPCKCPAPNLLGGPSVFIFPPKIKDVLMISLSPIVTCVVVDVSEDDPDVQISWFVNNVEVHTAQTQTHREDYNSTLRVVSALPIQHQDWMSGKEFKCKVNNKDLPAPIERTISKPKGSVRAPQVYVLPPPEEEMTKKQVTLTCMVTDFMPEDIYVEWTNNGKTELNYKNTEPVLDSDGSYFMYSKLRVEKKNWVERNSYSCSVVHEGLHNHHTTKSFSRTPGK

[4] = target: T3, Muc17ct_mIgG2aFc (soluble human Muc17ct …); test: ELISA, Muc17ct_mIgG2aFc coated at 1 µg/mL, anti-human kappa chain detection
[5] = target: Mucin 17 (Muc17) on AsPc1 pancreatic cancer cells (human, UniProt Q685J3 26-4493); test: flow cytometry on AsPc1 cells, FITC anti-human IgG detection

B1: MQ155 (antibody, IgG1, V domains shown)
VH: QVQLQQPGAELVRPGASVKLSCKASGYTFTTYWMNWVKQRPEQGLEWIGRIDPYDSETHYNQKFKDKAILTVDKSSSTAYMQLSSLTSEDSAVYYCARGPYYGTNPWFPYWGQGTLVTVSS
VL: DVQITQSPSYLAASPGETITINCRASKSISKYLAWYQEKPGKTNKLLIYSGSTLQSGIPSRFSGSGSGTDFTLTISSLEPEDFAMYYCQQHHEYPYTFGGGTKLEIK
notes: Mouse monoclonal from hybridoma, IgG1 kappa; also called anti-Muc17 antibody MQ155
B1: no binding (tested: 3 µg/mL) [1]; no binding (tested: 3 µg/mL) [2]; binds [3].

B2: chi.MQ155 (anti-Muc17 mouse-human chimeric antibody MQ155) (antibody, human IgG1, kappa, V domains shown)
VH: QVQLQQPGAELVRPGASVKLSCKASGYTFTTYWMNWVKQRPEQGLEWIGRIDPYDSETHYNQKFKDKAILTVDKSSSTAYMQLSSLTSEDSAVYYCARGPYYGTNPWFPYWGQGTLVTVSS
VL: DVQITQSPSYLAASPGETITINCRASKSISKYLAWYQEKPGKTNKLLIYSGSTLQSGIPSRFSGSGSGTDFTLTISSLEPEDFAMYYCQQHHEYPYTFGGGTKLEIKR
notes: Human IgG1 / kappa constant regions; also called chi.MQ155(DG); chi.MQ155(FTKO)
B2: binds [4]; binds [5].
